Here are results for 18 sequences from the DeepSol protein solubility set.

The nature of this data set: soluble on expression in E. coli; label from the status in PepcDB or PDB records.
In the case of “MGSDKIHHHHHHMKQNVLLQSILIQLNLLKENYSEDTIKNLMDIPKQLTSNTSYKRNVKEVSHVHIAFDDSTAGCLKHMLGQEERLEEMVVAFSEFFSIGPINKLHMNEGQLARKEWLVNNLTSYDCYFEEEYLPRFKETLEVLHSIPNETPITIWKADNAHEHVGLCFVMAQLKDKKNIRVMNTSEASKEILKLEYVIRGTGELPPENLALIQKSFVKLPYLTVENRMQFEHEWDSLSKSTEFLRIWTDNAVRSVQENYFDQFIIECAKSIGADQEFRKAPRVIGEALGLVEQSVGDTFLEYRLKELIKQEVFEFEGSLDEMRFYSVKLRK”, the “soluble on expression in E. coli” value is given as “not soluble”.
Regarding “MGSDKIHHHHHHMKQPNYYQDVKQFHQTFHHPGADQPTAIPLDRGVKRATWTAEEAVVEFLHQSSQNETEFLAAIETFKAGLDQAVKKSLKETYPVTEVERLVGQGDALTDALYFIMGSFVEAGLEPGPLFEIVQQANMAKLGPDGQPIFRESDQKVMKPDGWLPPEPQLEAEVVRQMKEKA”, the “soluble on expression in E. coli” value is listed as “not soluble”.
Regarding “MGSDKIHHHHHHMKQYGEKFIDEFSKAEFEKLAKQGQLIDVRTEEEYALGHINGSILHPVDEIESFNKEKNKTYYVICRSGNRSANASKYLAKQGYNVINLDGGYKAYEENDSYDTQEEYKSIEIKADRKQFNYRGFQCPGPIVKISQEMKNIEVGDQIEVKVTDPGFPSDIKSWVKQTRHTLVKLDENNNGINAIIQKEKAKDLDINYSAKGTTIVLFSGELDKAVAALIIANGARAAGKDVTIFFTFWGLNALKKVQTVNVKKQGIAKMFDLMLPQKNIRMPLSKMNMFGLGNMMMRYVMKKKNVDSLPTLINQAIEQNIKLIACTMSMDVMGIQKEELRDEVEYGGVGTYIGATENANHNLFI”, the “soluble on expression in E. coli” value is listed as “not soluble”.
In the case of “MGSDKIHHHHHHMKRINCFIPYGKIEATRQTVAQLAESSLVSQIYLITDDPHAKAIYPCNLIRTENIWSTKTLREIAGYASAHYTLIYTKTEELQLGMYALERFVAIADDTRSGMVYSDYYEKKEGKLNPHPVIDYQKGSLRDDFNFGSLLLYRSSTLQNAIASMDTEYTFAGLYDLRLKVSQNAPLTHINEYLYTEVENDLRKSGEKMFDYVDPKNRSVQIEMEAACTDHLKMIGGYLPPHFKPVRFDEQTFQTEASVIIPVRNRVRTIEDAIRSVLRQEASFPFNLIIIDNHSTDGTSERIQAIAATDLRIIHIQPERDDLGIGGCWNIGIHHSACGKFAIQLDSDDVYSDEHTLRKIVEAFYEQRCAMVVGTYRMTDFDMRTIPPGIIDHKEWTPENGRNNALRINGLGAPRAFYTPLLRKLNLPNTSYGEDYALGLRISREYPIGRIYDVLYLCRRWEDNSDASLDVVKMNNHNIYKDKIRTWELEARLNMERQ” it was “not soluble”.
Turning to “MGSDKIHHHHHHMKRNTAQLKEKLIQTGVEEIKKNGLDQLSLRTIAKNCGVTHGTPYRHFKSKEDYLRVVLTRLSTFLNQEIAQGIDQKVSARDQLAQMGFNLITFTKRYPYFFEALFIKFPFKYMKITQETIVLDSDLPGFDKFKRIVFDLRKEESFTNSEAETLFHFWSFISGLAVLANSPIGRDLDNQAIHTTINHMLDIYIKGEQT”, the “soluble on expression in E. coli” value is “not soluble”.
“MGSDKIHHHHHHMKRPLQTWLTESWLAFSRLLTFHILERRLFEHSGRIPYEPQPGNLLYVAASVLPYHTSGYTTRTHEVVCALNKAGARVHVLTRPGYPWDRKDRLCDPVSEETTVGDMCYRHAQAPANNRPVLQYALQAARVVAESAVRHRVAVIHAASNHVNALPALLAARQLGIPFQYEMRGLWELTRISRQPGYEDSQAYKQGLQLEGLVARHADRLFVISEQLGKYVQTNWDIDAGRMALLPNCVDPERFLIADPQQIESNTIGYAGSLMGYEGLDTLIDAVDILVRSGSSVRVVIIGDGEARPQLETRVQRLGLSERIYFSGKMPPDAAREKLARCALVCIPRKPFKVCEIVPPIKLVEALAMGKPVIVPDLPVFRDELGDDPAGWFFRSGDAADLAHVIEAALGNEEKLREMSDQARDYVLAKRCWHRFVDKMAKPYDS”: the “soluble on expression in E. coli” value was “not soluble”.
As to “MGSDKIHHHHHHMKSHVRSFKTYIRDEIIKKGGWVNAHAHADRAFTMTPEKIGIYHSSNLQQKWDLVDEVKRTSSVDDYYARFCQSIELMISQGVTAFGTFVDIDPICEDRAIIAAHKAREVYKHDIILKFANQTLKGVIEPTARKWFDIGAEMVDMIGGLPYRDELDYGRGLEAMDILLDKAKSLGIMCHVHVDQFNNPSEKETEQLCDKTIEHGMEGRVVGIHGISIGSHSKEYRYKLYEKMRKAKMMMIACPMAWIDSNRKEDLMPFHNALTPADEMIPEVSLLP”, the “soluble on expression in E. coli” value is listed as “not soluble”.
In the case of “MGSDKIHHHHHHMKSKIYILLLFLIFLSACANTRHSESDKNVLTVYSPYQSNLIRPILNEFEKQEHVKIEIKHGSTQVLLSNLHNEDFSERGDVFMGGVLSETIDHPEDFVPYQDTSVTQQLEDYRSNNKYVTSFLLMPTVIVVNSDLQGDIKIRGYQDLLQPILKGKIAYSNPNTTTTGYQHMRAIYSMHHRVSDVHQFQNHAMQLSKTSKVIEDVAKGKYYAGLSYEQDARTWKNKGYPVSIVYPIEGTMLNVDGIALVKNAHPHPKRKKLVQYLTSRSVQQRLVAEFDAKSIRKDVSEQSDQSIENLKNIPLIPKSKLPDIPHHKFLEMIQ” it was “not soluble”.
In the case of “MGSDKIHHHHHHMKTARLIYNPTSGREQIRKSLAYILERLELAGYETSTHATTGEGSATEAARLAGERRHDLVIAAGGDGTIYEVVNGLAGLEKRPTLGLIPAGTTNDFARALNIPRDIEKACDILIEGHTKPVDVGKAGDHYFINIAAGGTLTELTYEVPSKLKTVVGQLAYYIKGLEKLPQISPTDVRIEYDGKLFEGEIMMFLVSNTNSVGGFERLAPNASLRDGMFDFIIVKKTSFPEFLHLAGLALRGEHIKHPKVLYVQANRIKVQAEKSMQLNFDGEYGGLLPAEFVNLYQHFQMLCPKD” it was “not soluble”; in that of “MGSDKIHHHHHHMKTDITVVKASHLQPFISFLDKVGAPLDRLLNQVNLHADYFSDQENLIAEAPFWALLEHASYSQGIEDLGFQVTEQLSLDSFGVFGAKVMQADSLHQALTTFIRDMGQQSNCPPFWLMEQGAFVWFCRLGTQGIKKGHWPIEQHVISLMIQLVRGFTTATWTPPKVHLQTHTLKGADNTASFSNSQILINKAFTGICISKSLLLNGAVIKPKDRVAEEVAHQMTISTVNSHVIKELLMQSCANQPLNAQQIANSLGLNIRHMQRLLKEEGCSYRELSEQVLFKQSQVMLSTEQLSVLEVALALGYSDAANFTRAFKRWSGLSPTQYKLLLN”, “not soluble”; in that of “MGSDKIHHHHHHMKTLQYSFAQIEAFATIAETGSLSQAAIRLAKDRTTLRDLLDYLEDALGYRLFSREGRSLTLTAEGEQLFRQAHLLLRQAQAFESFAQTLPQTAGQALRLVYDPFVPREFLCALADNLARRQIRLSCWSASRREAEQALSDGVAEMAICQANNRTLGSEMEWRALGTVDLRFYAADSLFHDAPRPLTLLNLSLTPQLVMHRRSDDQIARRLQISGHTLYMNEITLLRHALEQGRGWGFLPDHLRPGEWQGVSEIATEVGSQGLNVTMVMLWLPGMNKHRMLSDIVHEAPELWLRR”, “not soluble”.
The entry for “MGSDKIHHHHHHMKTRYTYGGDEHVYVEIDDEMSLDAFFIALSLSKLVREANIPGVTEICPANASFEVRFDPDVIAPDEMMARIRELEGAAKAQEKRLDTRIIEIPVFYEDPWTHETLMRFRERHQDPSGTDLDYAARINGYDDAAAFIEAHHSQPWFVSMVGFVSGLPFLYQLVERQKQLEVPKYLRPRTDTPKLTVGYGGCFSCIYSVRGAGGYQMFGITPMPIFDPEQKISYLKDFMVFFRPGDIVKWKPIDRAEYDAITAQVEAGSYVPKIAEVAFDLDAFNKDMTGFNAKLMEALNDA” is “not soluble”; for “MGSDKIHHHHHHMKTTLAERLKTARTAQGLSQKALGDMIGVSQAAIQKIEVGKASQTTKIVELSNALHIRPEWLANGGGPMHSDRVVRSLQESSIPPTSKWGTVSAWDNTTKLSEDEVEVPFLKDIEFACGDGRIQSEDYNGFKLRFSKATLRKVGANTDGSGVLCFPAAGDSMEPIIPDGTTVAVDTNNKRIIDGKLYAIAQEGSGNDKLKRIKQLYRKPGGLLVIHSFNRDADEEAYESEVEIIGRVFWYSVLL” it is “not soluble”.
Take “MGSDKIHHHHHHMKVCVGIIGLGRIGHRFGISPQGDPLSHSEGYAQIPNVTVVLGVDPDPEACKNFLQRFSQAQVYSSLKDVPDGLHLEVVSVCSPTHLHAQGVIAALAWRPRVILCEKPLAVNVAEAEIMLAACSAQGCILITNYSRRWTPMLQALKNLTNQDDGLGTPIGACLRYNGGLLHNGTHWIDMLLALFGSVSCTYRLEKLSVAQDDAAESIALSWNSGLTAYLIAVRGTGCSIGEGELWGTGGMLRYSAGGGQVTWQTAQPSQWSGFQELDQAKIICEAGLKGHILGAVTEAVQLAKIGGQPTCSGADGVLALQVVEMARNNKFLIK”: the “soluble on expression in E. coli” value was “not soluble”.
With “MGSDKIHHHHHHMKVEITVSEDRMQAYVTLRKEGSSELPLTKEELLNALLSAGINHGIKEEIIEDLARSPVYNTPVLVAEGTPPVDGEDGRVELLKKIEFSSHEGEKIDLREIPAKQRVIVRKGETIARIIPPTPGKEGMDVFGNPVKPKPGRVPEYHLGYNVATKNNEIIATKSGILVIEPNGTIHVYDTLEVDNVDYSTGNIDFPGKVVVKGDVKPDFVVKAQEDITVKGVIEAATVISFNGSITAGGIKGRGKAFVKAKKTVKAVFIESAEVEAEEVQVEKNIENSAVKAINVVVSGKGGSIRGGITIAQVKVETYFLGSPIGVKTRVEVGVDPEINEKIKLLSAQISLDRENVQKLTKLLVELRKLQGMLKDKFPPDKEALLNKVNNTLINLRDSIQKNEGELKRLKEIAEEMAKNASVVVKEVVYSGVEIVMFERVFRVEKELAKAVFYYRDGEIRVGGYSA”, the “soluble on expression in E. coli” value was “not soluble”.
The entry for “MGSDKIHHHHHHMKVFTEKIPNIPWEERPEGYTGPVWRYSKNPIIGRNPVPKGARVFNSAVVPYNGEFVGVFRIDHKNTRPFLHFGRSKDGINWEIEPEEIQWVDVNGEPFQPSYAYDPRVVKIEDTYYITFCTDDHGPTIGVGMTKDFKTFVRLPNAYVPFNRNGVLFPRKINGKYVMLNRPSDNGHTPFGDIFLSESPDMIHWGNHRFVLGRSSYNWWENLKIGAGPYPIETSEGWLLIYHGVTLTCNGYVYSFGAALLDLDDPSKVLYRSRYYLLTPEEEYETVGFVPNVVFPCAALCDADTGRVAIYYGAADTHVALAFGYIDEIVDFVKRNSM” is “soluble”; for “MGSDKIHHHHHHMKVFVTGATGFIGASIARELLKDGCHVRVLARPGSDRRNLDGLDVEVCEGDLCSPESLDRGVKGCEVLYHAAADYRLWTRNPAAMYAANVEGTRHVLDAALRHGVSRVVYTSSVGTLGNPGDGTPGTEATPVTFADMVGDYKKSKFLAEREAETFLARGLPLVIVNPSTPVGPHDVKPTPTGKIIVDFLNRAMPAYLDTGLNIIDVEDCAQGHILAAQHGRIGEKYILGHENLTLRQIFSLLETVTGLAAPKVRLPYLPILAAAYANEALSRITGREPLIPLAGVQMARKFMYFDSSKAVKELGLPQRPAVEALGRAVEWFRANGYVR” it is “not soluble”.
The entry for “MGSDKIHHHHHHMKVTTISIDLAKNVFQVLGMDCHAKQVFNKRLNRTQLTEFMLQQPNCDVVFEACYSSHYWGRKFLAMGHNVKLIPAQHVTPFVRGSKNDNNDTMAIYEASFRPNIRFVPVKTEEQQEILMLHRIRERLVKEKTACTNQIRGVLVDFGICFAQGYKAFEVAIWDIINDASQRPIIKLMANDFWGEYQSVNTRLDRINTLIKKLIERDPNGKILLSIPGVGPIIASAFVASIGRGQAFNTAKELGVWLGLTPKQFASGHRSVNGSITKRGNGYLRKQLIHGARAVVSHASKKQDDLNLWIMQLRSRKSICSTVVATAHRLARLIWILLQKQVPYVPQYAANQGVNHGTC” is “not soluble”.
